Laboratory results: US20260035458A1 (Astellas, published 2026)

T1: human CLDN9 (human, UniProt O95484 1-217)
T1 construct: whole, on cells; Transiently expressed on HEK293 cells
T1 sequence (looked up): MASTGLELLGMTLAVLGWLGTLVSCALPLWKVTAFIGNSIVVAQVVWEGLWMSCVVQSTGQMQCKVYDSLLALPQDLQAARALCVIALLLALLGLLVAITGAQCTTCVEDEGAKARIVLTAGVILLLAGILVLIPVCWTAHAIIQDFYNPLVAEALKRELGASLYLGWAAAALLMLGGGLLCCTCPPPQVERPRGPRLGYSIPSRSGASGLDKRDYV


Assays:
human CLDN18.2 [1] = biological target: T2, human CLDN18.2 (human); test: flow cytometry on SNU-601 (2E4) cells (enriched for CLDN18.2), Alexa Fluor 647 anti-human IgG Fcγ secondary
T2 construct: also called claudin 18 splice variant 2
From the text: Control samples included bsAbs having murine CLDN18.2 ABDs, bivalent anti-CLDN18.2 mAbs, cells only, and secondary antibody only.

human CLDN18.2 [2] = biological target: T2, human CLDN18.2; test: flow cytometry on HEK293 cells transiently transfected with human CLDN18.2 (column hCLDN18.2 EC50 (nM))
Method: Therefore, the anti-CLDN18.2× anti-CD3 bsAbs were investigated for their binding to human CLDN18.2, cynomolgus CLDN18.2, and murine CLDN18.2. HEK293 cells were transiently transfected to express human, cynomolgus, or mouse CLDN18.2. 48 hours post transfection, cells were mixed with indicated concentrations of the bsAbs and incubated for 1 hour at 4° C. Cells were washed and then stained with a secondary Ab for 1 hour at 4° C. After two more washes, cells were analyzed on an Attune flow cytometer.

human CLDN9 = biological target: T1, human CLDN9; test: flow cytometry on HEK293 cells transiently transfected with human CLDN9, AF647 secondary antibody

Binder | EC50 (read off the curve) (human CLDN18.2 [1]) [ng/mL] | EC50 (human CLDN18.2 [2]) [nM] | binding result (human CLDN9)
XENP29470 (antibody, V domains shown, also called H1L1 CLDN18.2 (printed H1LI); bivalent mAb) VH: EVQLVQSGAEVKKPGESLRISCKASGYTFTSYWINWVRQMPGKGLEWMGNIYPSDSYTNYNQKFQGHVTISVDKSISTAYLQWSSLKASDTAMYYCTRSWRGNSFDYWGQGTLVTVSS VL: DIVMTQSPDSLAVSLGERATINCKSSQSLLNSGNQKNYLTWYQQKPGQPPKLLIYWASTRESGVPDRFTGSGSGTDFTLTISSLQAEDVAVYYCQNDYSYPFTFGSGTKLEIK | ~500 | – | –
XENP29471 (antibody, V domains shown, also called H2L1 CLDN18.2; bivalent mAb) VH: QVQLVQSGAEVKKPGASVKVSCKASGYTFTSYWINWVRQAPGQGLEWMGNIYPSDSYTNYNQKFQGRVTMTVDKSTSTAYMELSSLRSEDTAVYYCTRSWRGNSFDYWGQGTLVTVSS VL: DIVMTQSPDSLAVSLGERATINCKSSQSLLNSGNQKNYLTWYQQKPGQPPKLLIYWASTRESGVPDRFTGSGSGTDFTLTISSLQAEDVAVYYCQNDYSYPFTFGSGTKLEIK | ~900 | – | –
XENP29472 (bispecific antibody, also called anti-CLDN18.2× anti-CD3 bsAb; Fab-scFv) heavy: EVQLVQSGAEVKKPGESLRISCKASGYTFTSYWINWVRQMPGKGLEWMGNIYPSDSYTNYNQKFQGHVTISVDKSISTAYLQWSSLKASDTAMYYCTRSWRGNSFDYWGQGTLVTVSSASTKGPSVFPLAPSSKSTSGGTAALGCLVKDYFPEPVTVSWNSGALTSGVHTFPAVLQSSGLYSLSSVVTVPSSSLGTQTYICNVNHKPSDTKVDKKVEPKSCDKTHTCPPCPAPPVAGPSVFLFPPKPKDTLMISRTPEVTCVVVDVKHEDPEVKFNWYVDGVEVHNAKTKPREEEYNSTYRVVSVLTVLHQDWLNGKEYKCKVSNKALPAPIEKTISKAKGQPREPQVYTLPPSREEMTKNQVSLTCDVSGFYPSDIAVEWESDGQPENNYKTTPPVLDSDGSFFLYSKLTVDKSRWEQGDVFSCSVMHEALHNHYTQKSLSLSPGK not shown light: not shown | – | 146 | no binding (tested: 30000 ng/ml)

More lines, now with the values ahead:

EC50 (read off the curve) (human CLDN18.2 [1]) [ng/mL] | EC50 (human CLDN18.2 [2]) [nM] | binding result (human CLDN9) | Binder
~400 | 4 | no binding (tested: 30000 ng/ml) | XENP24644 (antibody, V domains shown, also called H0L0 CLDN18.2; bivalent mAb) VH: QVQLQQPGAELVRPGASVKLSCKASGYTFTSYWINWVKQRPGQGLEWIGNIYPSDSYTNYNQKFKDKATLTVDKSSSTAYMQLSSPTSEDSAVYYCTRSWRGNSFDYWGQGTTLTVSS VL: DIVMTQSPSSLTVTAGEKVTMSCKSSQSLLNSGNQKNYLTWYQQKPGQPPKLLIYWASTRESGVPDRFTGSGSGTDFTLTISSVQAEDLAVYYCQNDYSYPFTFGSGTKLEIK
~500 | 6 | no binding (tested: 30000 ng/ml) | XENP29476 (bispecific antibody, also called anti-CLDN18.2× anti-CD3 bsAb; Fab2-scFv) heavy: EVQLVQSGAEVKKPGESLRISCKASGYTFTSYWINWVRQMPGKGLEWMGNIYPSDSYTNYNQKFQGHVTISVDKSISTAYLQWSSLKASDTAMYYCTRSWRGNSFDYWGQGTLVTVSSASTKGPSVFPLAPSSKSTSGGTAALGCLVKDYFPEPVTVSWNSGALTSGVHTFPAVLQSSGLYSLSSVVTVPSSSLGTQTYICNVNHKPSDTKVDKKVEPKSCDKTHTCPPCPAPPVAGPSVFLFPPKPKDTLMISRTPEVTCVVVDVKHEDPEVKFNWYVDGVEVHNAKTKPREEEYNSTYRVVSVLTVLHQDWLNGKEYKCKVSNKALPAPIEKTISKAKGQPREPQVYTLPPSREEMTKNQVSLTCDVSGFYPSDIAVEWESDGQPENNYKTTPPVLDSDGSFFLYSKLTVDKSRWEQGDVFSCSVMHEALHNHYTQKSLSLSPGK EVQLVQSGAEVKKPGESLRISCKASGYTFTSYWINWVRQMPGKGLEWMGNIYPSDSYTNYNQKFQGHVTISVDKSISTAYLQWSSLKASDTAMYYCTRSWRGNSFDYWGQGTLVTVSSASTKGPSVFPLAPSSKSTSGGTAALGCLVKDYFPEPVTVSWNSGALTSGVHTFPAVLQSSGLYSLSSVVTVPSSSLGTQTYICNVNHKPSNTKVDKKVEPKSCGGGGSGGGGSEVQLVESGGGLVQPGGSLRLSCAASGFTFSTYAMNWVRQAPGKGLEWVGRIRSKYNNYATYYADSVKGRFTISRDDSKNTLYLQMNSLRAEDTAVYYCVRHGNFGDSYVSWFAYWGQGTLVTVSSGKPGSGKPGSGKPGSGKPGSQAVVTQEPSLTVSPGGTVTLTCGSSTGAVTTSNYANWVQQKPGKSPRGLIGGTNKRAPGVPARFSGSLLGGKAALTISGAQPEDEADYYCALWYSNHWVFGGGTKLTVLGGGGSGGGGSKTHTCPPCPAPPVAGPSVFLFPPKPKDTLMISRTPEVTCVVVDVKHEDPEVKFNWYVDGVEVHNAKTKPREEQYNSTYRVVSVLTVLHQDWLNGKEYKCKVSNKALPAPIEKTISKAKGQPREPQVYTLPPSREQMTKNQVKLTCLVKGFYPSDIAVEWESNGQPENNYKTTPPVLDSDGSFFLYSKLTVDKSRWQQGNVFSCSVMHEALHNHYTQKSLSLSPGK light: not shown
~600 | 4 | no binding (tested: 30000 ng/ml) | XENP24647 (bispecific antibody, also called anti-CLDN18.2× anti-CD3 bsAb; Fab2-scFv) heavy: QVQLQQPGAELVRPGASVKLSCKASGYTFTSYWINWVKQRPGQGLEWIGNIYPSDSYTNYNQKFKDKATLTVDKSSSTAYMQLSSPTSEDSAVYYCTRSWRGNSFDYWGQGTTLTVSSASTKGPSVFPLAPSSKSTSGGTAALGCLVKDYFPEPVTVSWNSGALTSGVHTFPAVLQSSGLYSLSSVVTVPSSSLGTQTYICNVNHKPSDTKVDKKVEPKSCDKTHTCPPCPAPPVAGPSVFLFPPKPKDTLMISRTPEVTCVVVDVKHEDPEVKFNWYVDGVEVHNAKTKPREEEYNSTYRVVSVLTVLHQDWLNGKEYKCKVSNKALPAPIEKTISKAKGQPREPQVYTLPPSREEMTKNQVSLTCDVSGFYPSDIAVEWESDGQPENNYKTTPPVLDSDGSFFLYSKLTVDKSRWEQGDVFSCSVMHEALHNHYTQKSLSLSPGK QVQLQQPGAELVRPGASVKLSCKASGYTFTSYWINWVKQRPGQGLEWIGNIYPSDSYTNYNQKFKDKATLTVDKSSSTAYMQLSSPTSEDSAVYYCTRSWRGNSFDYWGQGTTLTVSSASTKGPSVFPLAPSSKSTSGGTAALGCLVKDYFPEPVTVSWNSGALTSGVHTFPAVLQSSGLYSLSSVVTVPSSSLGTQTYICNVNHKPSNTKVDKKVEPKSCGGGGSGGGGSEVQLVESGGGLVQPGGSLRLSCAASGFTFSTYAMNWVRQAPGKGLEWVGRIRSKYNNYATYYADSVKGRFTISRDDSKNTLYLQMNSLRAEDTAVYYCVRHGNFGDSYVSWFAYWGQGTLVTVSSGKPGSGKPGSGKPGSGKPGSQAVVTQEPSLTVSPGGTVTLTCGSSTGAVTTSNYANWVQQKPGKSPRGLIGGTNKRAPGVPARFSGSLLGGKAALTISGAQPEDEADYYCALWYSNHWVFGGGTKLTVLGGGGSGGGGSKTHTCPPCPAPPVAGPSVFLFPPKPKDTLMISRTPEVTCVVVDVKHEDPEVKFNWYVDGVEVHNAKTKPREEQYNSTYRVVSVLTVLHQDWLNGKEYKCKVSNKALPAPIEKTISKAKGQPREPQVYTLPPSREQMTKNQVKLTCLVKGFYPSDIAVEWESNGQPENNYKTTPPVLDSDGSFFLYSKLTVDKSRWQQGNVFSCSVMHEALHNHYTQKSLSLSPGK light: DIVMTQSPSSLTVTAGEKVTMSCKSSQSLLNSGNQKNYLTWYQQKPGQPPKLLIYWASTRESGVPDRFTGSGSGTDFTLTISSVQAEDLAVYYCQNDYSYPFTFGSGTKLEIKRTVAAPSVFIFPPSDEQLKSGTASVVCLLNNFYPREAKVQWKVDNALQSGNSQESVTEQDSKDSTYSLSSTLTLSKADYEKHKVYACEVTHQGLSSPVTKSFNRGEC
– | 145 | no binding (tested: 30000 ng/ml) | XENP24645 (bispecific antibody, expressed in HEK293E cells; also called anti-CLDN18.2× anti-CD3 bsAb; Fab-scFv) heavy: QVQLQQPGAELVRPGASVKLSCKASGYTFTSYWINWVKQRPGQGLEWIGNIYPSDSYTNYNQKFKDKATLTVDKSSSTAYMQLSSPTSEDSAVYYCTRSWRGNSFDYWGQGTTLTVSSASTKGPSVFPLAPSSKSTSGGTAALGCLVKDYFPEPVTVSWNSGALTSGVHTFPAVLQSSGLYSLSSVVTVPSSSLGTQTYICNVNHKPSDTKVDKKVEPKSCDKTHTCPPCPAPPVAGPSVFLFPPKPKDTLMISRTPEVTCVVVDVKHEDPEVKFNWYVDGVEVHNAKTKPREEEYNSTYRVVSVLTVLHQDWLNGKEYKCKVSNKALPAPIEKTISKAKGQPREPQVYTLPPSREEMTKNQVSLTCDVSGFYPSDIAVEWESDGQPENNYKTTPPVLDSDGSFFLYSKLTVDKSRWEQGDVFSCSVMHEALHNHYTQKSLSLSPGK not shown light: DIVMTQSPSSLTVTAGEKVTMSCKSSQSLLNSGNQKNYLTWYQQKPGQPPKLLIYWASTRESGVPDRFTGSGSGTDFTLTISSVQAEDLAVYYCQNDYSYPFTFGSGTKLEIKRTVAAPSVFIFPPSDEQLKSGTASVVCLLNNFYPREAKVQWKVDNALQSGNSQESVTEQDSKDSTYSLSSTLTLSKADYEKHKVYACEVTHQGLSSPVTKSFNRGEC
